The record followed here is a protein production outcome set (Wang et al. 2014).

The nature of this series: label from the status in PepcDB records.

Regarding “FIFFNQPKTPEESIQLLGAQAGDTESFRVTLDRIPPQIQKLSFTATLDGAGQMSQVAPGYLRIVAGGEEVARYSFTGSEFSTERAVMLGDFYLKDVWRFAAVGQGFDGGLDALL”, the protein production result was “failed”. The same measure for “FNGWSWSLGGNIGFNKSKIGDLGFAPTDFGTLKNVRGYQGTSIGDHFGIANLFIAGEAPGLFFGYKTQGIIQPEDIVDGKVAYTAADGSTKYYSSSVANDLGAGNIKAVDMNEDGVVDEKDKTILGNPNPDFTYGFQTRIAWKDLSVSASFNGVHGNQILNTNIRYYTPSRQAGNLTQEAFRNIWTEENHSNLYPSATANVKNVVYDRYIEDGSYLRCSDITLNYTLPKSWMKKIGFQNIGVFASVKNAFVITNYSGYDPEINSFAFDGLRPGIDMNAFPSQRSYVFGLNVAF”: “failed”.

Turning to “FQDFEYPDYDDYRAEAFLHQQKRMECYSKAKEAYRIGKKNVATFYAQQGTLHEQKMKEANHLAAIEIFEKVNASLLPQNVLDLHGLHVDEALEHLMRVLEKKTEEFKQNGGKPYLSVITGRGNHSQGGVARIKPAVIKYLISHSFRFSEIKPGCLKVMLK”, the protein production entry is given as “failed”. With “FVWHEYENAAEAAQSLADAVADALQGALDEKGGAVLAVSGGRSPIAFFNALSQKDLDWKNVGITLADERIVPTVHADSNTGLVREYLLKNKAEAAMWIPMVEDGKTETELHPDAVVDYALKHYKQPDVLVLGMGNDGHTASIFPKAPQFQTAIDGSAGVALVHTTPVTAPHERVSMTLDAIAHTGHVFLAIRGEEKKAVFDQAAQGENREYPINLVLNHQGVNCHV” the entry was “failed”; with “FYTNRTVVKLMTMIMAPQPGESVYDPTCGSGGLLLNCALHLKDEGKEYRTLKLYGQEINLLTSAIARMNMFMHGIEEFDIVRGNTLSNPGLLENDELKKFNVILANPPYSIKSWDRKAFESDPYGRNVWGTPPQGCADYAFQQHIQKSLDLGNGRSISLWPHGILFRDAETAMRRKMIEQDQVECVIGLGPNLFYNSPMEACLLITKTNKIESKKDKILFINAVKEVRQDKNIGYLDQVHIDKIFNAYNKFENED”, “failed”; with “GAPLKAVSAFAPPMKTQDFNLYTNEVHAKFDDYDLGMEYARQHNKPVMLDFTGYGCVNCRKMELAVWTDPKVSSIINNDYVLITLYVDNKTPLTEPVKIMENGTERTLRTVGDKWSYLQRVKFGANAQPFYVLIDNEGNPLNKSYAYDEDISKYINFLQTGLENYRKEK”, “not failed”. The same measure for “GDDEIAMLGRYFNQMTRQLKGQRDTLLENTHQIERRRRLFDSVLSSVTSGVVGLDSQGKVTFVNRSAERLLDWSGDEQSLDLAVAVPEFVSLFESLVAAGQETVQAEIKVTRKGQLENLLVRMSTRRGEDDTLEGYVIAFDD”: “failed”; for “GDGVWDWDISNGSIFFSSRCRQLLGLTAPEAIAGFQLWQTGIHPDERPTVQAELAGYLRQPEGSFVTEHRFRKGEEWIWLLGRGMVVSLDIQGRPLRMIGTYSDITERKEAEAELQLLNSHLEERVAARTAELKKAMQQISIAEKQAALARMVAGMAHELNTPIGNILLCSSQIQADVAAIAKADTDRLLSRKGLQSFLQKAAESCELLQRNSELAGDLIGRFKQIAVDQLDQP”: “failed”. Take “GDLAGSLDLGTGRIALYSIDVSGHGVASALMTARLAGLLSGLSTDGGVARSDGACRQCAGHDSWPPEILAARLNRMMIADLGVEQYFTMAYAEIDLRSGALALVQAGHPHPVVLRAGGRVELLGQGGLPVGLLPDATFERSETRLLPGDRLFLLSDGVTECPDLSGHELGEAGLVRLLAEHAGLGSEELMEALVWALHERMGGGDFRDDVSGVLFDY”: the protein production entry is reported as “failed”. For “GEELLPDGVPEEVMESAQPVANEEIVAQLVSMGFSQLHCQKAAINTSNAGVEEAMNWLLSHMDDPDIDAPI”, the protein production entry is given as “not failed”. On to “GEGTDAIQALIQAYFTAWNTNAPERFAEIFWPDGSWVNVVGMHWRGRDQIVFAHTAFLKTIFKDCKQELVTIEARTIAPGSALAVVTLIQDAYVTPDGRQMPRAHDRLTLLAVEREGVWRFIHGHNTIVNPDAANNDPVLRMKPA”, for which the protein production result is on record as “not failed”. For “GFAATALPVLQRVTDRTHEATILSVRDGNHHLTVNKVDGPKTFRVTSDPGHLGALHTTSVGKALVAFEEEVERKRLLEELPLDPLTEHSITDRDKFRAEIDQVRRQGYAVMDEENEIGMRAVAVPVLNSQGHAFASLAVAVPVFRLTMEELIAHVPTLQEAAAELAARLPQ”, the protein production entry is reported as “failed”. Turning to “GGLRLIPLDQVRYLQADEKYVVICHEQGEDLIEESLKSLEKEFSDRFVRIHRNCLIARAELTELRRCSDGQVQAVLRNVVTPLAVSRRCVPLLCDQLR”, the protein production entry is given as “not failed”. With “GGTPSPQLTSRQEIAVVPKVFDASTMFLEAQMASIQILEQENKKIGYVHIWSNAADPYQQELQNELIYGRLRNADGLILDLRDGWGGGDISYLNIFTAKQSPSVTHVQRNGRRYTYNYQWKKPVVMLVNEGSRSSKEILAFNFQQNQIGPVLGTKTTGAVVAGRPYIMQDGSLLYVAVADVFLNGNQRLEGKGVTPDINVPFSLEYAQGVDPQKQTAIETLLKAL” the entry was “failed”. Consider “GHMARTVNLKGNPVTLVGPELKVGDRAPEAVVVTKDLQEKIVGGAKDVVQVIITVPSLDTPVCETETKKFNEIMAGMEGVDVTVVSMDLPFAQKRFCESFNIQNVTVASDFRYRDMEKYGVLIGEGALKGILARAVFIIDKEGKVAYVQLVPEITEEPNYDEVVNKVKELI”, for which the protein production result is listed as “not failed”.

Regarding “GHMSEFVSIAARQEGAVGIIELARPDVLNALSRQMVAEIVAAVEAFDRNEKVRVIVLTGRGRAFAAGADIQEMAKDDPIRLEWLNQFADWDRLSIVKTPMIAAVNGLALGGGFELALSCDLIVASSAAEFGFPEVNLGVMPGAGGTQRLTKLIGPKRALEWLWTGARMSAKEAEQLGIVNRVVSPELLMEETMRLAGRLAEQPPLALRLIKEAVQKAVDYPLYEGMQFERKNFYLLFASEDQKEGMAAFLEKRKPRFQGK”, the protein production entry was “not failed”.

Consider “GHMSPGERFLDWLKRLQGQKAWTAARAAFRRSLAFPPGAYPRAMPYVEPFLAKGDWRQEEREAHYLVAALYALKDGDHQVGRTLARALWEKAQGSASVEKRFLALLEADRDQIAFRLRQAVALVEGGIDFARLLDDLLRWFSPERHVQARWAREYYGAGASEEEKKKEVEA”, for which the protein production entry is “not failed”. Regarding “GIKDSPVNKVEPNDTLEKVFVSVTKYPDEKRLKGLSKQLDWSVRKIQCWFRHRRNQDKP”, the protein production result was “not failed”. In the case of “GKKIKYDTPLSTLVIAPPGTGKTSAIIIPNLLSIPNSQVVIDVKGEICSLTAGYRQKKLLNQVFIFNPFGEDSNFHFNPFNLERMSKLGFAEKTAIVRQVGSTIFPKPKDEKDSHWRETAKTFFEFAAMHNIEKYGYTTLYEIYRFPKKDWTDELEDKYFDEKEKREELGEEVNTFRLLLRQIAENETLHDNIRDDARRFLGTPANEFGSVLSTFSTKMSIFGDLRVKELTDQNSFMPERLREDNITLYIKCLEKDIPSLSPIIRILLETIVKELMSRESTDPKERIYLELDEVMRFGELDFMIELPSISRSYNLPNIFAAQSYAQIRKHYSQEDLEIMLDTVAYQVVFRANRQQAAEDISKEVGDFTAHKKTTSSQDIKILQSYSTSEEAKRLVTAQDILNIPKDKVLILATGHKATPILAQANFYFKDRTERQKTKIKKE”, the protein production result is reported as “failed”. The same measure for “GKRSTMLLRAITPQDWDAILQIQEECYSQLDPEPLHVLQSKWHVSPQSCFVFEVNESVVGYCLAHPWTTNMPPALYEPITHLPKADTLYLHDIAISAKAQGLGAGSKALMRLKQLADRFNLGSLSLVAVQGADSYWRKMGFTPKAIDKCLGSYTDDAMYMIYKL”: “failed”; for “GKTFPDVPADHWGIDSINYLVEKGAVKGNDKGMFEPGKELTRAEAATMMAQILNLPIDKDAKPSFADSQGQWYTPFIAAVEKAGVIKGTGNGFEPNGKIDRVSMASLLVEAYKLDTKVNGTPATKFKDLETLNWGKEKANILVELGISVGTGDQWEPKKTVTKAEAAQFIAKTDKQFGTE”: “not failed”; for “GMINAHNHLPMIAFRGLGEEGISNRLFAYFFPLEAQKLSRELIYNATKLGAIDLAQSGVTTYADMYYHMDEMAKATKEVGLRAVLGETVIKFPVVDAKQPYGGIQYAKPFIEEYQNDPLITPAYAPHAVYTVSKEKLQEINQLSEDYDVPVLIHVAEFPNEEARIKDPTKATSPVEYLEEIGVLDERMVIAHGIHLSQHDQALLKQADAGVVYNPMANVKGATGIAPAWDMFRADMRVGLGTDGPMSSNQVDLWRTLSYAANMQRLKHSDRTIMIPEQVIEMATIGGAKALHMEDE”: “failed”. With “GNLEEMNIDPDNATQTHPKLLLTQICMNAFKRGTDGMYATKKVIQADGESADQYYKWTRGSFGYYDNLRNVQKMGEEAERVNAPVYTALTKFFRAYYFYELTLRFGDIPYSQALKGEKEEIYTPEYDAQEDVFAGILQELREADEILANDASVIDGDIIYNGNSTQWRKLINSFRLKVLMTLSNHTTVGNINIASEFKNIATNSPLMNSLADNGQLVYLDQQGNRYPQFNAQWSGYYMDDTFIQRMRERRDPRLFIFSAQTNKGKTEGKPIDDFSSYEGGDPAAPYSDAIIKVSEGTISPINDRFRTDPIVEPTMLMGYAELQQILAEAVVRGWISGNAQTYYEKGIRASFSFYETHAKDYAGYLNENAVAQYLKEPLVDFTQASGTEEQIERIIMQKYLVTFYQGNWDSFYEQLRTGYPDFRRPAGTEIPKRWMYPQGEYDNNGTNVETAITRQFGAGNDKINQATWWQKKS” the entry was “not failed”; with “GPGSMSLKVNILGHEFSNPFMNAAGVLCTTEEDLRRMTESESGSLIGKSCTLAPRTGNPEPRYFGLPLGSINSMGLPNLGVDFYLSYAAQTHDYSRKPLFLSMSGLSVEESVEMVKKLAPITKEKGTILELNLSCPNVPGKPQVGYDFDTTRTYLQKVSEAYGLPFGVKMPPYFDIAHFDMAAAVLNDFPLVKFITCVNSIGNGLVIDPANETVVIKPKQGFGGLGGKYVLPTALANVNAFFRRCPDKLVFGCGGVYSGEEAFLHILAGASMVQVGTALHDEGPIIFARLNKELQEIMTNKGYKTLDEFRGRVKTMD”, “not failed”; with “GPLQVSNARLLFPISMPEDEGVVRLVVNNTDESDLQVAVVSLPSFVSLDDRAFRLQAREPRELNLSLAVPRNMPPGMKDEPLVLEVTSPETGKKAVDSVMVSLPLVDNFPALTAAQTGVMELSTYLDMGQLDGETTKAAIEIRNVGAGPLRLHSVTTRNPALTAVPDRTEIKPGGSTLLRIAVDPQVMKAEGWQSIAADISIICNDPQAPLRRIKVKAEL”, “not failed”. With “GPYATEVELREMVDIAQEHGIVEIEERRMIQSVFDLASTTVRQVMVPRPEMIWIESGKTAGQATALCVRSGHSRIPVIGENVDDIIGIVYLKDLVQKTYYATDGGKSVLVDEVMREATFVPDSKSLDALLQEMQEDHKHIAILVDEYGGVAGLISIEDILEEIVGEIADEYDAREVAPIEKIGDRTYRVVSRL” the entry was “not failed”; with “GQEYRALPGADTGRPDLDRSYALVYPAPRPKALLLLVPGLLGGSTNFALLAERLRAMAPGLEVWAWERRANGLEDRRGFLREDPVAYYRALALPDLTPLRAWGLEVHLKDLDLAVEAARARAPVVLAGHSLGAALAGLYALLHGEKLSGLVLLDGAPGVVPLAEEAFYEGADLPFGRLVGYRAFLRGEGSPAVELLGLGPKALALAEAEAFLAAKRPEEDLPFGPYRATREALALLRVDDDYSLFPVFSVSAGRAWAREGFSLLGLLQGRLVRTVRGPRAGPIAWRDTGEATDPRAFLRAFALPETGFSEWYFPYRLLLEVGGYPYVLRGLKPRALPYPVLALGAGRGLYPRAEDFRLGELFPGTEARAQVLPGLTHLDLLTEREGRTAGLLLRYLQDL”, “failed”.
